{"source": "paper PMC10991234", "about": "“An evolved pyrrolysyl-tRNA synthetase with polysubstrate specificity expands the toolbox for engineering enzymes with incorporation of noncanonical amino acids” (Bioresources and Bioprocessing, 2023)", "proteins": {"B1": {"name": "PedH (Pseudomonas putida KT2440) (protein)", "chain": "AVSNEEILQDPKNPQQIVTNGLGVQGQRYSPLDLLNVNNVKELRPVWAFSFGGEKQRGQQAQPLIKDGVMYLTGSYSRVFAVDARTGKKLWQYDARLPDDIRPCCDVINRGVALYGNLVFFGTLDAKLVALNKDTGKVVWSKKVADHKEGYSISAAPMIVNGKLITGVAGGEFGVVGKIQAYNPENGELLWMRPTVEGHMGYVYKDGKAIENGISGGEAGKTWPGDLWKTGGAAPWLGGYYDPETNLILFGTGNPAPWNSHLRPGDNLYSSSRLALNPDDGTIKWHFQSTPHDGWDFDGVNELISFNYKDGGKEVKAAATADRNGFFYVLDRTNGKFIRGFPFVDKITWATGLDKDGRPIYNDASRPGAPGSEAKGSSVFVAPAFLGAKNWMPMAYNKDTGLFYVPSNEWGMDIWNEGIAYKKGAAFLGAGFTIKPLNEDYIGVLRAIDPVSGKEVWRHKNYAPLWGGVLTTKGNLVFTGTPEGFLQAFNAKTGDKVWEFQTGSGVLGSPVTWEMDGEQYVSVVSGWGGAVPLWGGEVAKRVKDFNQGGMLWTFKLPKQLQQTASVKP", "notes": "recombinant, pET-28a in E. coli BL21(DE3), purified on Ni-NTA; PQQ and Pr3+ added"}}, "details_in_all_cases": "100 mM Tris-HCl pH 8, 30°C, 1.5 µM PrCl3, 1.5 µM PQQ, 1 mM PES, 150 µM DCPIP", "key": {"[1]": {"substrate": "CC[C@H](C)O", "experiment": "purified protein"}, "[2]": {"substrate": "CC[C@@H](C)O", "experiment": "purified protein"}, "[3]": {"substrate": "CO", "experiment": "dye-linked PES/DCPIP colorimetric assay, Michaelis-Menten fit", "assay_type": "biochemical, Pseudomonas putida"}}}
{"protein": "B1", "values": [{"measurement": "Km", "setting": "[1]", "result": "1070 ± 180", "unit": "µM"}, {"measurement": "kcat", "setting": "[1]", "result": "0.43 ± 0.01", "unit": "s⁻¹"}, {"measurement": "kcat/Km", "setting": "[1]", "result": 402, "unit": "M⁻¹ s⁻¹"}, {"measurement": "Km", "setting": "[2]", "result": "940 ± 130", "unit": "µM"}, {"measurement": "kcat", "setting": "[2]", "result": "0.42 ± 0.01", "unit": "s⁻¹"}, {"measurement": "kcat/Km", "setting": "[2]", "result": 447, "unit": "M⁻¹ s⁻¹"}, {"measurement": "Km", "setting": "[3]", "result": 1100, "unit": "µM"}, {"measurement": "kcat", "setting": "[3]", "result": 0.15, "unit": "s⁻¹"}]}
